{"source": "the DeepSol protein solubility set"}
{"assay": "soluble on expression in E. coli; label from the status in PepcDB or PDB records"}
{"sequence": "MERHGSELQGEVVFTTTSTANNNVKRAVEYFEDDNQDDALTSTSSGNSTQKESSPFTDFDDVPPPPVAPETPAPAQNRRESASPERQFLDESHLGGIGSPLSQSTRLDETFIEEYSIELDTSGNSRNNISSAASPGPKSPFDDDFTDTAAPVAPPPAPTKAAEEYRRQPHQNPFDEEEEEESQFGGGTLSGRDPFDEDSGNSNENQLREKKLHKKEQLAHRLSSSSEEIVEASIHEDEPIVMAQIPEEKPKPKAIPAFDNAYDADFDNSPPLHHYSAVHLETGLSPLEEAQRALRANRARHKPSNVSLAEEAKLAARQRYSNASDIRREEEEEVVEEDPAVVVPVLRKDLEVEEAPKSVRPPRYRKSREIEEPVVVDRFVEEEVDEKEDIDAIFEKYRKVRKDIFEKNGVENLKNLNFFRTSVSADPKSHTPILMADEYKEPQKQVPAPVVVAQESPILKRRNSLVPSRISGRQSTRRSVTSVRSMRGKRKTRAIPEFFDLTRHQNIRLRAPATKKKRISLHRVEDTEAVVELLNGQKVEVACRSDVISRDVFSLIVQNMNINEHVFFGLSFLRDGEHYFIEDHQRLEKFAPSGWKSVARVGVKVPYVLHLRFKFYPQILDFIKTDVTMNELYLQCRRDVLEERIQPKRDAAFELAALALQAEFGNRPPPVITDYFDIQHYLPKKYSSFEDQSRLKNILAELHGHYAGTRISEAKHKYIQICQRHPDFGAHVHRVFRTKPTSAHGASPFDPDTGSSLWIGIMPRGISIYEQQGGAREVIAEHVWPQTQTLQFDKKRFVIVAVGAHDEQIESTFYTDHHSKSSYFVRFAASQHRWMMKMRQWKSTLRHENTIQAMPDVIVEGQTIPPAPIRQGLEESPPSTPLLASADQIFAKMSVSQEKPAANRPAELPPPAPSSKFAAQYDTVDEGIVCDSQAENFERVDSTDNGNVTPRGMQFDILLVKDPANGLGLTLVDGNLNGVPGVYVKLVADNGAGMKAIKPKWDILTPCDSTQIFASQNQIFPSVSAEMLASAGRKKSFTSSSGDLLNAPNRTNGQSRTPPAPRKAANRRQRAVSDFGAIGDALPTLDGDNLINIKAISGLHLDESDEEKGEYRLPTTSMYAFDRDDDLQASIKESKKPAPEPKSGELRKYRYARRSNLEIAEEIEEEAVESSDDDGQIDEGKRVIDVELDRNENGSLGVQIASLSGRVCIKQLTSEPAISHPDIRVGDVLLYVNGIAVEGKVHQEVVAMLRGGGDRVVLGVQRPPPAYSDQHHASSTSASAPLISVMLLKKPMATLGLSLAKRTMSDGIFIRNIAQDSAASSEGTLRVGDRLVSLDGEPVDGFTPATILEKLKLVQGPVQITVTREQTA", "soluble on expression in E. coli": "not soluble"}
{"sequence": "MSLSENLIIFNAKVVTPLGFSARKGKEMAELRILEKATVEVVDGIITYVGPNRGEVRDGYYHHFWHYNARGKCLLPGFVDSHTHFVFGGERAEEFSWRLKGESYMSIMQRGGGIASTVQATRELSFIHLRSKAEGLLKKMTAMGITTVEGKSGYGLNRETELLQLKVMRSLNKDEGVRVDIVPTFLGAHALPDEYKERPDDYIDFLIRELLPVIQRDSLAEFCDVFCEEGVFSIEQSRRLLTAAGDYGLLPKLHADEIVPLGGAELAAELGAVSADHLLHASDAGIEAMARKGVVATLLPLTAFALKEPYARGRDMIDAGCAVALATDLNPGSCFSGSIPLTFALACIHMQLTVEEAITALTLNGAAALNRADSIGSIEVGKKGDFVVLDSDNYHILPYYVGMNCVNTTIKGGMLYPSEGHHHHHH", "soluble on expression in E. coli": "soluble"}
{"sequence": "MYMTGHSLGCYLAQIAAVEAYQKYPDFYNHVLRKVTTFSAPKVITSRTVWNAKNGFWDVGLESRKLAVSGKIKHYVVDNDNVVTPLIHNNRDIVTFTGNSRFKHRSRGYFESPMNDIPNFNIGKQATLDKHGYRDPKLDKVRFFKKQALPRSSSQPSAEPMENIASGKQVTQSSTAFGGDARRAVDGKVDGNYGHNSVTHTNFQSKPWWQVDLAKEETIRQINIYNRTDTAQDRLANFDVILLDSSGKEIE", "soluble on expression in E. coli": "not soluble"}
{"sequence": "MKTIIFALNDHSPKYKQIYEKLKSLIERGDIQANEPLPSIRQLAESLNVSRNTTLMAYEQLAAEGYIRAEKRKGYFANEVEPLFIPKARISARQPAREAAAPVVVDFARRCR", "soluble on expression in E. coli": "not soluble"}
{"sequence": "MPANELFGDSDPEGDEIFERVRKVQPKSINVTENQKVDPMRKVKIELQAVLVAEKIPISTEEIRRRLLDSYGACPDPKRYNCSTLDDLLQACSESIVHTFGRDGIHRYGPRTTEANQDIIEMVQQQSSSKRPARSFLGSGATNNLSTHGSSFRAFRGPYASEEIAKSRGTPEQFKARHKLGPAKTISRVKNLAEVLKEYADEIGVSHPDEPNRKIVTLAALANKFKQLYCLPAWGKNISESELYIQLNVPPFNEYLHFWRLSEKGDIFVDCIDRDNADPTQKSEQNPSADVSIQSESFGGKSSASAFEQSVVSAPSTIRDQTSDSFDGFNSFEVPPENGSKDSKIFNSNQESIDDYPGNAISRDRTADMTDIALRFGTVSVASQQCPVSSSLVPQNGILRQSRAQEDDNNTSILTIQSSRRNHSVLRHRTIKPRNPTQNLAEVVKTHGSIPYEALSDCDKIIVDLGKNIFKVYATQPGEMMVRLCDPHVDTTTLPLLENNLRDPVESDLRWMTLGNSHIKKQSVKVVKPAMFIAPRGFLLILKDEEREEMDVEKVATMGNILRAVMVAPIVELQRETVRTGSAAVYVYRQGAEVRYYRVLIVGQAKQDGEVLVLLADVDDQYFVDVHLSHLFPIPEEASFKHFPSNVVFATLHGVLGLTLSEQDVMFENIDNDDTKRFVGGYFHGNDDRILNIDMVWKNERGQFEWLSQIVKRRGAVTSSDANIIHFPHSALDVIKSVGPDCSVCFVDYSVRDESATSSLMESTRIVHDSRESMTTTYVGEMPSPIIEEIDATSSFDPKLLNLHSLFDKLIEEQNVTMIVGMFQFVRSLKDLFGDNNEWERLLTYMLTTGKNNNIRL", "soluble on expression in E. coli": "not soluble"}
{"sequence": "MGSMVCDVCHHECETAKELESHRQSCINGQCPYCMTITEATESALQAHYSICKLTGR", "soluble on expression in E. coli": "soluble"}
{"sequence": "SLNVPDMILYNGKITTLDPSQPEVSAIAITDGLITAVGGYELLNSATEKTKKIDLKRKRAIPGLNDSHIHVIRGGLHYNMELRWEGVPSIAIALEMLKEQARRTPAPQWVRVVGGWSEFQFKERRMPTLEEINAVSEDTPVFVLHLYDRALVNRAGLRALGYTKDTPDPPGCLIERDKRGNPTGLLIANPNASILYSSLGKAPILNFDDQINSTRHFMRELNRLGITSAIDAGGGFQNYPDDYRVVEHLAEKEQLTLRIAYNLFTQNPNHEYEDFASWAKIVSPGQGNDKYKMNGAGEMLVFSAADFEKFQMPRPELATMMEADLKKVISLLVENRWPFRLHATYDESITRFLNVFEEVNKEIPFNGLRWWFDHAETISDRSMERVKALNGGIAIQDRMAFQGEYFVDLYGKEAAKRTPPIYRMLDLGIPVGAGSDATRVSSYNPWVALYWMVAGKTIGGLSIYDKKNKLDRKVALELYSKGSAWFSGDEGKKGTLAVGQFADIAVLSADYFTVPEEEIKDLESLLTIMGGQVVYGNDEFKNLSPELPPASPDWSPTGVYGYGGANLAHTILSHNSHDNKLHSCSNPLHQHTHTVIGKDGTKWGIGCTCFAF", "soluble on expression in E. coli": "not soluble"}
{"sequence": "MSLRIEYNYRYYLTENEYKQYHIQLKGFIKKYVATKLADVGEVIHFAQAQQRQGRYVSLYLSYEAAKYFNHVMCTHSLAKDDIYAVAYSFEKAESINSTYEHQTSYVSKHHFSFVESSEVMMTNIKRVQQAIVEGETYQVNYTARLTDNIYYPISTLYERLTQFSNGNYTALLQTDEIQVASISPELFFQKGQFNNVDNVIISKPMKGTMPRGKTEAEDQQYYKTLQTSSKDRAENVMIVDLLRNDIGRISQSGSIKVYKLFFIEAYKTVFQMTSMVSGTLKTNTDLTQILTSLFPCGSITGAPKLNTMKYIKQFESSPRGIYCGAIGLLLPTEDDKMIFNIPIRTIEYKYGQAIYGVGAGITIDSKPKDEVNEFYAKTKILEMLEGHHHHHH", "soluble on expression in E. coli": "soluble"}
{"sequence": "GPGSMVAKQSTAKGGSRYPPLTADQEKEVTELMELMRTKYDPLPQQLLALQRYNPQMEGTASEGAVAGTFFSPIRNYCYYFLISREWDRQKSFEMMQLSVSYREKNELDSRAELPSAICCRGWEQEKVRIALDKPARPTSQRLDRLSAGIEQYFTFGLHYWDKHGQPVVYLNLGSVDEPGLLKKLKQLANIGQTPNLVMWELVQHLIGVQEQLLFYQQMQYAAGTLKAEADDGLIRSATIVIDLNGLTYKMLWKPALDLFMNMLQTLFQYYPKCVHQILLVNSPPMVMFAYKIVRGALPHGVQRKVHIVNVADTPATMQSFIDAQYVPDYLGGLCHCEGGCVRGYDPHQRGTMKDSGTAKSDTRNVQSGDQDDEAGVVTEEITLKAGQELKRAFSLKRAESVVWEFVSANGRDVAFSTYFVPKKAAPSIDTSKLPTSMLESYVVSKASPSEGSDKYTASDDGIFVIVWDNKKSWFTAKYLQLNVFKQAATLTDGA", "soluble on expression in E. coli": "not soluble"}
{"sequence": "MMVRILTRLGQVREAEEKYRRELVDFRMGEVYGNLRAIIADEDVEVRAGEAKPVKIKEVSIPANHIVFMCAYATNPLGHPIAAGEETPLPISMDRKADHATFVAAADGKISRNDLLGVLIILPVELTH", "soluble on expression in E. coli": "not soluble"}
{"sequence": "YNPLYSIENATSRRDTVLQNMVAAGKISQKQANEAKKVGMGNRISDTYVAKTDDYQYPSYFDAVISEASSVYGISEKDIVNNGY", "soluble on expression in E. coli": "not soluble"}
{"sequence": "MGVHSFWDIAGPTARPVRLESLEDKRMAVDASIWIYQFLKAVRDQEGNAVKNSHITGFFRRICKLLYFGIRPVFVFDGGVPVLKRETIRQRKERRQGKRESAKSTARKL", "soluble on expression in E. coli": "not soluble"}
{"sequence": "MSSQELVTLNVGGKIFTTRFSTIKQFPASRLARMLDGRDQEFKMVGGQIFVDRDGDLFSFILDFLRTHQLLLPTEFSDYLRLQREALFYELRSLVDLLNPYLLQPRPALVEVHFLSRNTQAFFRVFGSCSKTIEMLTGRITVFTEQPSAPTWNGNFFPPQMTLLPLPPQRPSYHDLVFQCGSDSTTDNQTGVRYVSIKPDNRKLANGTNVLGLLIDTLLKEGFHLVSTRTVSSEDKTECYSFERIKSPEVLITNETPKPETIIIPEQSQIKK", "soluble on expression in E. coli": "soluble"}
{"sequence": "SNAMAVETLYRSTRDLETTFVDRKLADAHDQMLELAELLTDVLIKNVPGLSEKHAEDASIYMAKNRAVFAAAFKNNATALSELSEPAESEG", "soluble on expression in E. coli": "soluble"}
{"sequence": "MSLSASTHDLVIIGAGPAGMSAALTAASLGMKTLLLDEQLRPGGQIYRNITAVPPSVAALLGPDYRHGEGLAARLGRSGVELRFGAMVWDVARDLTVTAQQDGQSFQVRAPQLIAATGAMERASPIPGWTLPGVLNAGAAQIALKSASAVPSGRVVLAGSGPLLLLVACQLLDAGVSLAGIVETSPSTNRWRALRHLPAALGAHAYLAKGLRMLWRLRRAGVPMFAAATSLRVEGGERVQALAFKADRIDHLLHADVVLLHHGVVPNTQLSRLLRVDHDWDLVQLAWRPQVNAWGETSLAGFRVAGDGAAIAGAQAAEPNGTLAALGAAQALGRLDVTECEQRAASARGTLKRQLRIRPFLDALYRPPEWLSDPTDETVVCRCEEVTAGRVREMARLGCQGPNQTKFFSRCGMGPCQGRVCGLTVTQILSTELGRPPSEVGAYHIRSPLKPVPLASIAALADTATIENSEPMETTEGHHHHHH", "soluble on expression in E. coli": "not soluble"}
